The target of the test is methyltransferase domain of human GLP (residues 951-1235) (human). In words: not stated; affinity of GLP for H3 peptides; the method of the affinity is not told; the methods describe only a SAHH-coupled kinetic assay of GLP (Km, kcat; peptide 2 uM to 4 mM, 70 uM SAM, room temperature, 25 mM potassium phosphate pH 8).

This is an account of results in PMC2797608.

Take H3K9 peptide trimethylated at lysine 4: the decrease in affinity against the peptide not methylated at K4 is 43%.
